Data set [1] addresses T1, Factor XII (FXII, zymogen) (human, UniProt P00748 20-615).
T1 sequence: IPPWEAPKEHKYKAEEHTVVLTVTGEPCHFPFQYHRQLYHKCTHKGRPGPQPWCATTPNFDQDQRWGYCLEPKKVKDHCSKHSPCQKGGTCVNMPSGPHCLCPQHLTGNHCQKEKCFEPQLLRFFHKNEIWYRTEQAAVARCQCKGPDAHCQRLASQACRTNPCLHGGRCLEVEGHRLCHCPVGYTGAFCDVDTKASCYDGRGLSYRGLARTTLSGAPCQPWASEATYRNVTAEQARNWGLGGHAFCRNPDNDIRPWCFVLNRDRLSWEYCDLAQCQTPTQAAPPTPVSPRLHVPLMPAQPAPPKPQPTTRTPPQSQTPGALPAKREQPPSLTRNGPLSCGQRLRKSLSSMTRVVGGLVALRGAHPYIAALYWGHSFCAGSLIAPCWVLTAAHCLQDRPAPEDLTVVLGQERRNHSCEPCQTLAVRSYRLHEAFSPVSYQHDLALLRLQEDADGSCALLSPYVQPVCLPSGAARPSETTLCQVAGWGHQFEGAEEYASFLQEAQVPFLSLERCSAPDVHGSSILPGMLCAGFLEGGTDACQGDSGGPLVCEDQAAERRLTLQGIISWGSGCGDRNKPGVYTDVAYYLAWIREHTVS
Put plainly: double-filter nitrocellulose binding.

Data set [2] addresses T2, Factor XIIa (alpha-FXIIa) (UniProt P00748;P00748 20-372;373-615).
T2 sequence 1: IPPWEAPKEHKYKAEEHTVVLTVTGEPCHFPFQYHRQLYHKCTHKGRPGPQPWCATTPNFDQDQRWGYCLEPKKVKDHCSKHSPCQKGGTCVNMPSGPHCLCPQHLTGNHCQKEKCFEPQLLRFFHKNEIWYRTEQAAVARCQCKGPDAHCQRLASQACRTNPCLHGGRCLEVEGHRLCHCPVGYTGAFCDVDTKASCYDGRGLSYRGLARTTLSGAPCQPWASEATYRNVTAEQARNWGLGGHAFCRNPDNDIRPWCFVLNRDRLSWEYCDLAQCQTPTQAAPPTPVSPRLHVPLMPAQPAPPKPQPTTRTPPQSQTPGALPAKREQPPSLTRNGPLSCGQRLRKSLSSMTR
T2 sequence 2: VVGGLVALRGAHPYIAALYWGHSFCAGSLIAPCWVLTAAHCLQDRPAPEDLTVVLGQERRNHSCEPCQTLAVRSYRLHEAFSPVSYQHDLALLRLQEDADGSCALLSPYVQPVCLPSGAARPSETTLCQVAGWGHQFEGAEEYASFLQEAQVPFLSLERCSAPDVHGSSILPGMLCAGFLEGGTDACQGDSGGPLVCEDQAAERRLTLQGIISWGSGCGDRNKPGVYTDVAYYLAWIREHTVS
Nature of the data set: double-filter nitrocellulose binding.

The target of data set [3] is T1, Factor XII (FXII, zymogen). Put plainly: nitrocellulose filter binding.
Data set [4] has as its target T2, Factor XIIa (alpha-FXIIa). Put plainly: nitrocellulose filter binding.
Data set [5] has as its target T1, Factor XII (FXII, zymogen). Put plainly: double-filter nitrocellulose binding. The source holds these as a separate data set.
Data set [6] addresses T2, Factor XIIa (alpha-FXIIa). Put plainly: double-filter nitrocellulose binding. The source holds these as a separate data set.

Read-outs that look alike come from different tables or passages of the source.

B1: R4cXII-1 (XNA)
RNA: GGGAGGACGAUGCGGCCAAAUCUCGGCUGCCAGCAGGUCACGAGUCGCAAGAUAACAGACGACUCGCUGAGGAUCCGAGA
modifications: all C and U are 2'-fluoro; A and G ribo
Usually Kd stands for the concentration at which binding is half-saturated. Higher therefore signals weaker binding. B1: the Kd in data set [1] worked out at 8.9 ± 1 nM; in data set [2], 0.5 ± 0.2 nM.

B2: scrambled control RNA (XNA)
RNA: GGGGCAGCCGUGGACCGACUGCCGCAUGCCAUUGACAGUCCGAUGCCAGGC
modifications: all C and U are 2'-fluoro; A and G ribo
Consider B2, for which the binding result in data set [3] and in data set [4] was “no binding” each time.

B3: R4cXII-1t (XNA)
RNA: GGCUCGGCUGCCAGCAGGUCACGAGUCGCAGCGACUCGCUGAGGAUCCGAG
modifications: all C and U are 2'-fluoro; A and G ribo
For the molecule B3, the Kd in data set [5] worked out at 12.9 ± 2.06 nM; in data set [6], 0.4 ± 0.02 nM.

The values above are taken from article PMC3816843.
